Ends that are not written are not given here. Peptide text beside a SMILES is read from it. * marks the point of attachment. Biotin = O=C1N[C@H]2[C@H](CS[C@H]2CCCCC(=O)*)N1
Columns and labels:
Assay in all cases: G' assay (10 uM PL peptide), results of TABLE 7 and TABLE 12
Format in all cases: binding
[1] = biological target: T1, PDZ protein (GST-PDZ fusion) (Homo sapiens, UniProt O15085); conditions: PDZ KIAA0380, PDZ Domain 1
T1 construct: made in house; host or cells: E. coli (DH5alpha, BL21 or JM109)
T1 sequence (O15085 whole entry, the tested form may be a part): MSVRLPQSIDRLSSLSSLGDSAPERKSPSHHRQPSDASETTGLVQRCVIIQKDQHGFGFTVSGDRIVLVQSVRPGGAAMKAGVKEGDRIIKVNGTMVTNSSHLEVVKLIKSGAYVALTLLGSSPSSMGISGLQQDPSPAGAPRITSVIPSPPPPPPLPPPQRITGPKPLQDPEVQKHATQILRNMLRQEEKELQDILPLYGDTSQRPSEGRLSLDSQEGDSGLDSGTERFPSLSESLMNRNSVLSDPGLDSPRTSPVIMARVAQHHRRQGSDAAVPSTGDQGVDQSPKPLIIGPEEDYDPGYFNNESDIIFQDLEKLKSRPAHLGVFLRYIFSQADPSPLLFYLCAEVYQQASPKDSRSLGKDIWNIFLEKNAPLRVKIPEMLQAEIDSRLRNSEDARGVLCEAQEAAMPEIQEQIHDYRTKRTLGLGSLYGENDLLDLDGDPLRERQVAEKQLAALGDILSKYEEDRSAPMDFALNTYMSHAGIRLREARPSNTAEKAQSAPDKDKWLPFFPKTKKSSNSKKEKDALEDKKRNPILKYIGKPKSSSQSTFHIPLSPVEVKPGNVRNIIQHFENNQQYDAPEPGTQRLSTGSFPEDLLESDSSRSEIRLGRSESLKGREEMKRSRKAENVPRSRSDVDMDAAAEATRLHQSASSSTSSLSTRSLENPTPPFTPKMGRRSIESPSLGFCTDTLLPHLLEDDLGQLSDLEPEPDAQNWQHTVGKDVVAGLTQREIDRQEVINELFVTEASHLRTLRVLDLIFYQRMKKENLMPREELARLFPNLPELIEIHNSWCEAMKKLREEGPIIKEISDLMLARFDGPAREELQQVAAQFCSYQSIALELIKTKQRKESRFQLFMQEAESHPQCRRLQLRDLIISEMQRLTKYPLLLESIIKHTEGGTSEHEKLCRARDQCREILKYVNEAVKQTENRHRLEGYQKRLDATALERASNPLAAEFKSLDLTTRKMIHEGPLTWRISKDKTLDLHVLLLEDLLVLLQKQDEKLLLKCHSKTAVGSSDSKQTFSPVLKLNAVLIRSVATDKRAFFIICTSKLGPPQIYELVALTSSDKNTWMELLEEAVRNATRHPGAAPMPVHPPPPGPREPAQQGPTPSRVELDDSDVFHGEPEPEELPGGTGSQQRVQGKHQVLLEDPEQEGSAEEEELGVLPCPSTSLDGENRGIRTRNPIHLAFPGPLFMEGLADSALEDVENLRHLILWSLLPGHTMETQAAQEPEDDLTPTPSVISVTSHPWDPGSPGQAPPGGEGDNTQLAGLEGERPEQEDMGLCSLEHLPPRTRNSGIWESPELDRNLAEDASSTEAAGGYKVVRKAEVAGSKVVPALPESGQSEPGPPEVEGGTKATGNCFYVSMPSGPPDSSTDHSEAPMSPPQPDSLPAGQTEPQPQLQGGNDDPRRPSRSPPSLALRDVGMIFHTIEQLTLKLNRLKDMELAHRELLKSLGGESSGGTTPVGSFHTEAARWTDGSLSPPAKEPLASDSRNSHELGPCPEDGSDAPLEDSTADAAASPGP
In short: (§1)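 Same steps as the G-zero format, apart from a peptide concentration of 10 uM in place of 20 uM in step 2. Amino-terminally biotinylated PL peptides bind GST-PDZ fusions, and retained peptide is quantified by 450 nm absorbance.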

[2] = biological target: T2, PDZ protein (GST-PDZ fusion) (Homo sapiens, UniProt Q9HD26); conditions: PDZ PIST, PDZ Domain 1
T2 construct: made in house; host or cells: E. coli (DH5alpha, BL21 or JM109)
In short: as §1

[3] = biological target: T3, PDZ protein (GST-PDZ fusion) (Homo sapiens, UniProt Q9Y3R0)
T3 construct: made in house; host or cells: E. coli (DH5alpha, BL21 or JM109)
T3 sequence (Q9Y3R0 1-1128): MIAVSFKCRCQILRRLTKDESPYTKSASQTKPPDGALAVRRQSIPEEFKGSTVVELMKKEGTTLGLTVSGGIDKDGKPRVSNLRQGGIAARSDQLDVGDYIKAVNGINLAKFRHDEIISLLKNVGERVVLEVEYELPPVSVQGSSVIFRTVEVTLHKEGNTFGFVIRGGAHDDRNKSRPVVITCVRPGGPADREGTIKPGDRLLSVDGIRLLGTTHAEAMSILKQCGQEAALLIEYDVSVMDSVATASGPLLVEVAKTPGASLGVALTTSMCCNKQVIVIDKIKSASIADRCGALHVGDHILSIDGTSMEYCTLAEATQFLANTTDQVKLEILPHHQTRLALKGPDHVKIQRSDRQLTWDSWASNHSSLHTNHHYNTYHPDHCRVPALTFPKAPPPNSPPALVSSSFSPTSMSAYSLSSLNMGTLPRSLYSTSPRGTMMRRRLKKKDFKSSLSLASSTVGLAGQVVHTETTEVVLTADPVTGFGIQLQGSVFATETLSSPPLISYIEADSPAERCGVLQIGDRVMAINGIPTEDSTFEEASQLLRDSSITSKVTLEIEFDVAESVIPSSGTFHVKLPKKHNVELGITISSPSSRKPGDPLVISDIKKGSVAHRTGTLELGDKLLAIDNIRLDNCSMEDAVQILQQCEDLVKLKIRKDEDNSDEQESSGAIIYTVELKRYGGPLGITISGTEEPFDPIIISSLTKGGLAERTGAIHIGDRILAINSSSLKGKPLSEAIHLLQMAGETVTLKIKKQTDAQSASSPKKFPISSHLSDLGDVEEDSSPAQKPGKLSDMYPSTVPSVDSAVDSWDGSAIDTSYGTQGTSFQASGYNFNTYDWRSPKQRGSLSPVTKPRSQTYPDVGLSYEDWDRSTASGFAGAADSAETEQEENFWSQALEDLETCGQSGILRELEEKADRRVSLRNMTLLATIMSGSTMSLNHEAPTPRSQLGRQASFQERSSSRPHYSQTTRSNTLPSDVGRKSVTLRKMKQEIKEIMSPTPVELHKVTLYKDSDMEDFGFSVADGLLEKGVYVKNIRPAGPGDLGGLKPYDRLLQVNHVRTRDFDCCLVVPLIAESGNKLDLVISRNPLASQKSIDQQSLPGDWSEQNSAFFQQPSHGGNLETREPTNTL
In short: as §1

[4] = biological target: T4, PDZ protein (GST-PDZ fusion) (Homo sapiens, UniProt Q07157)
T4 construct: made in house; host or cells: E. coli (DH5alpha, BL21 or JM109)
T4 sequence (Q07157 whole entry, the tested form may be a part): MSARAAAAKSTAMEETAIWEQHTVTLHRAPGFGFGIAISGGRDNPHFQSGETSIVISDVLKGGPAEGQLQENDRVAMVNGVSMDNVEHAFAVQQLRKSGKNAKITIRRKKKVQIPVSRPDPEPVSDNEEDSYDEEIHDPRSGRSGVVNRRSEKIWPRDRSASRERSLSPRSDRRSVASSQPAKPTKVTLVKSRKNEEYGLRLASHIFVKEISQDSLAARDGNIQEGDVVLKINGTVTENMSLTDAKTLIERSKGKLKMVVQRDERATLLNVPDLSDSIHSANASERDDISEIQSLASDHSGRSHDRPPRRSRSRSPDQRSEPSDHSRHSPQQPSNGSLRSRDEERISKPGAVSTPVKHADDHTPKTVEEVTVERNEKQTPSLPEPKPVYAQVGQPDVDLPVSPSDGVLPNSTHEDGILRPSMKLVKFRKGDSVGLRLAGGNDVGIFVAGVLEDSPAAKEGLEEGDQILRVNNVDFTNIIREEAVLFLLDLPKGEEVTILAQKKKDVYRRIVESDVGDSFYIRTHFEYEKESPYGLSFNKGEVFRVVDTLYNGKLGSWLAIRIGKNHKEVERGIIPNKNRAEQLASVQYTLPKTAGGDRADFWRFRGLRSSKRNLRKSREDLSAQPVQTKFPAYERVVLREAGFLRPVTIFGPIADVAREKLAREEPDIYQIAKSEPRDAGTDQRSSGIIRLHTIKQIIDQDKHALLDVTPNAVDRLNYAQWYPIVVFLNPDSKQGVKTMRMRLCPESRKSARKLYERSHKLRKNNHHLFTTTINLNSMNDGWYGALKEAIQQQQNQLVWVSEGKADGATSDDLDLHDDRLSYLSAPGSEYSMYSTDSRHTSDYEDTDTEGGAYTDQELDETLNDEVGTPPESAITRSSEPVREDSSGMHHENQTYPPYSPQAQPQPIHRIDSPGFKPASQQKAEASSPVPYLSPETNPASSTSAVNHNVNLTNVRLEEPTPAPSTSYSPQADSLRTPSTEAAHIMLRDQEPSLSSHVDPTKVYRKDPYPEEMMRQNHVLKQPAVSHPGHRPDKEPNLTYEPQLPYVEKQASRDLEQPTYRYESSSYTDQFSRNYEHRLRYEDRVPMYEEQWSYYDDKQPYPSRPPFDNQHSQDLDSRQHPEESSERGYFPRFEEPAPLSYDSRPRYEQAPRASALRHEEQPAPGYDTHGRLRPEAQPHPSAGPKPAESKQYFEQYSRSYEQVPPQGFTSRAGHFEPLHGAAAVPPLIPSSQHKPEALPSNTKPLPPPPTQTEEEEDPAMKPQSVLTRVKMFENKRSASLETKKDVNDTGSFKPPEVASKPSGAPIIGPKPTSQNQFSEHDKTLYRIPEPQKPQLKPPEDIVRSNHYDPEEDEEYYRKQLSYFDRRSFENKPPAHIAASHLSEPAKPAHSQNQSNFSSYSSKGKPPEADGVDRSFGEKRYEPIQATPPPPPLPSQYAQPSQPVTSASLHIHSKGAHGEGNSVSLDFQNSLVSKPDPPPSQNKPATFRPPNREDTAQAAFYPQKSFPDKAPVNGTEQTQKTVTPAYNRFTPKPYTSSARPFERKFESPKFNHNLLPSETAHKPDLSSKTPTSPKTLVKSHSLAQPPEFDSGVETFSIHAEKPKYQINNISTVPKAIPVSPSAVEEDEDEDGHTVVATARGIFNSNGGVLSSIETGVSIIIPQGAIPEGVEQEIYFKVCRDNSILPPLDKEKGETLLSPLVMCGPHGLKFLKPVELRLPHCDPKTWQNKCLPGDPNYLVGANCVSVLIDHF
In short: as §1

RNIEEVYVGGKQVVPFSSSV (Biotin-RNIEEVYVGGKQVVPFSSSV) [Nedasin (s-form)]
Classification [1]: 1 (A450 nm 0-1)

CC[C@H](C)[C@H](NC(=O)[C@H](CO)NC(=O)[C@H](CCC(=O)O)NC(=O)[C@H](Cc1ccc(O)cc1)NC(=O)[C@H](CC(=O)O)NC(=O)[C@H](CC(N)=O)NC(=O)[C@H](CCC(=O)O)NC(=O)[C@H](CCCCN)NC(=O)CCCC[C@@H]1SC[C@@H]2NC(=O)N[C@@H]21)C(=O)N[C@@H](CO)C(=O)N[C@@H](CC(=O)O)C(=O)N[C@@H](CC(C)C)C(=O)N[C@@H](CCC(N)=O)C(=O)N[C@@H](CCC(N)=O)C(=O)NCC(=O)N[C@@H](CCCNC(=N)N)C(=O)N[C@@H](CC(=O)O)C(=O)N[C@H](C(=O)N[C@H](C(=O)N[C@@H](CCCNC(=N)N)C(=O)N[C@@H](CC(C)C)C(=O)O)[C@@H](C)O)[C@@H](C)CC [PAG] (Biotin-KENDYESISDLQQGRDITRL-OH; C-terminus assumed)
Classification [2]: 1 (A450 nm 0-1)

CC(C)C[C@H](NC(=O)[C@H](CCCNC(=N)N)NC(=O)CNC(=O)CNC(=O)[C@H](CCCNC(=N)N)NC(=O)[C@H](C)NC(=O)[C@@H]1CCCN1C(=O)[C@H](CCCNC(=N)N)NC(=O)CNC(=O)CNC(=O)[C@@H](NC(=O)[C@H](C)NC(=O)CCCC[C@@H]1SC[C@@H]2NC(=O)N[C@@H]21)C(C)C)C(=O)N[C@@H](CCC(N)=O)C(=O)NCC(=O)N[C@@H](CCCNC(=N)N)C(=O)N[C@@H](CCCNC(=N)N)C(=O)N[C@@H](CCC(N)=O)C(=O)N[C@H](C(=O)N[C@@H](CCC(N)=O)C(=O)N[C@H](C(=O)O)C(C)C)[C@@H](C)O [HPV E6 58 (modified)] (Biotin-AVGGRPARGGRLQGRRQTQV-OH; C-terminus assumed)
Classification [1]: 1 (A450 nm 0-1)

LNETTETQRTLLNGDLQTSI (Biotin-LNETTETQRTLLNGDLQTSI) [SSTR2 (somatostatin recepor 2)]
Classification ([3]; PDZ GRIP1, PDZ Domain 7): 1 (A450 nm 0-1)

CC[C@H](C)[C@H](NC(=O)[C@H](C)NC(=O)[C@H](CC(C)C)NC(=O)[C@H](Cc1c[nH]c2ccccc12)NC(=O)[C@H](Cc1c[nH]cn1)NC(=O)[C@H](CCC(N)=O)NC(=O)[C@H](CC(C)C)NC(=O)[C@H](CCC(N)=O)NC(=O)[C@H](Cc1ccccc1)NC(=O)[C@H](CCC(N)=O)NC(=O)[C@H](CCCNC(=N)N)NC(=O)[C@@H](NC(=O)[C@H](CC(=O)O)NC(=O)[C@H](CCCNC(=N)N)NC(=O)[C@H](CCC(N)=O)NC(=O)[C@H](C)NC(=O)[C@@H](NC(=O)[C@H](CC(C)C)NC(=O)[C@H](Cc1c[nH]cn1)NC(=O)[C@H](Cc1c[nH]cn1)NC(=O)CCCC[C@@H]1SC[C@@H]2NC(=O)N[C@@H]21)C(C)C)[C@@H](C)CC)C(=O)O [noradrenaline transporter] (Biotin-HHLVAQRDIRQFQLQHWLAI-OH; C-terminus assumed)
Classification [1]: 1 (A450 nm 0-1)
Classification ([3]; PDZ GRIP1, PDZ Domain 6): 2 (A450 nm 1-2)
Classification ([4]; PDZ ZO-1, PDZ Domain 2): 2 (A450 nm 1-2)

GPVPGEPAKPKTSAHHATFV (Biotin-GPVPGEPAKPKTSAHHATFV)
Classification [2]: 1 (A450 nm 0-1)
Classification ([4]; PDZ ZO-1, PDZ Domain 1): 1 (A450 nm 0-1)

A2AC_HUMAN (Modified) (Biotin-DFRPSFKHILFRRARRGFRQ; not fully specified)
Classification ([3]; PDZ GRIP1, PDZ Domain 5): 1 (A450 nm 0-1)

CC(C)C[C@H](NC(=O)CNC(=O)[C@@H](NC(=O)[C@H](CO)NC(=O)[C@H](CC(N)=O)NC(=O)[C@H](Cc1ccccc1)NC(=O)CNC(=O)[C@H](C)NC(=O)[C@H](C)NC(=O)[C@H](Cc1ccccc1)NC(=O)[C@@H](NC(=O)CCCC[C@@H]1SC[C@@H]2NC(=O)N[C@@H]21)[C@@H](C)O)[C@@H](C)O)C(=O)N1CCC[C@H]1C(=O)N[C@@H](Cc1c[nH]cn1)C(=O)N[C@@H](CO)C(=O)N[C@H](C(=O)N[C@H](C(=O)N[C@@H](CCCNC(=N)N)C(=O)N[C@H](C(=O)O)C(C)C)[C@@H](C)O)[C@@H](C)O [Neuroligin] (Biotin-TFAAGFNSTGLPHSTTRV-OH; C-terminus assumed)
Classification ([4]; PDZ ZO-1, PDZ Domain 1): 1 (A450 nm 0-1)

ELLQFCRTPNPALKNGQYWV (Biotin-ELLQFCRTPNPALKNGQYWV)
Classification ([3]; PDZ GRIP1, PDZ Domain 5): 1 (A450 nm 0-1)
Classification ([3]; PDZ GRIP1, PDZ Domain 7): 5 (A450 nm of 4 more than 2× repeated)
Classification ([4]; PDZ ZO-1, PDZ Domain 1): 5 (A450 nm of 4 more than 2× repeated)
Classification ([4]; PDZ ZO-1, PDZ Domain 2): 4 (A450 nm 3-4)

ARHRVTSYTSSSVNVSSNL (Biotin-ARHRVTSYTSSSVNVSSNL) [IL-8RB]
Classification [1]: 1 (A450 nm 0-1)

ALVLIAFCIIRRRPSAYQAL (Biotin-ALVLIAFCIIRRRPSAYQAL) [CD68]
Classification ([3]; PDZ GRIP1, PDZ Domain 6): 1 (A450 nm 0-1)

CC[C@H](C)[C@H](NC(=O)[C@H](Cc1ccc(O)cc1)NC(=O)[C@H](CC(C)C)NC(=O)[C@H](CCC(N)=O)NC(=O)[C@H](Cc1c[nH]cn1)NC(=O)[C@H](CO)NC(=O)[C@H](C)NC(=O)[C@H](CC(C)C)NC(=O)[C@@H](NC(=O)[C@H](CC(=O)O)NC(=O)[C@H](CCSC)NC(=O)[C@H](Cc1ccccc1)NC(=O)[C@@H]1CCCN1C(=O)[C@H](CCCNC(=N)N)NC(=O)[C@@H](NC(=O)[C@H](CC(C)C)NC(=O)[C@H](CC(N)=O)NC(=O)[C@H](CC(=O)O)NC(=O)[C@@H](NC(=O)[C@H](CO)NC(=O)CCCC[C@@H]1SC[C@@H]2NC(=O)N[C@@H]21)[C@@H](C)O)C(C)C)[C@@H](C)O)C(=O)O [presenilin-2] (Biotin-STDNLVRPFMDTLASHQLYI-OH; C-terminus assumed)
Classification ([4]; PDZ ZO-1, PDZ Domain 1): 1 (A450 nm 0-1)

A2AA_HUMAN (modified) (Biotin-HDFRRAFKKILARGDRKRIV; not fully specified)
Classification ([4]; PDZ ZO-1, PDZ Domain 2): 4 (A450 nm 3-4)

CC(C)C[C@H](NC(=O)[C@H](Cc1c[nH]c2ccccc12)NC(=O)[C@H](Cc1c[nH]cn1)NC(=O)[C@H](CCCNC(=N)N)NC(=O)[C@H](CC(C)C)NC(=O)[C@@H](NC(=O)[C@H](Cc1ccccc1)NC(=O)[C@H](CCC(N)=O)NC(=O)[C@H](CCCNC(=N)N)NC(=O)[C@@H](NC(=O)[C@H](CCC(=O)O)NC(=O)CNC(=O)[C@H](CCCNC(=N)N)NC(=O)[C@H](CC(=O)O)NC(=O)[C@@H](NC(=O)[C@H](CC(C)C)NC(=O)[C@H](CCC(=O)O)NC(=O)[C@H](CCCNC(=N)N)NC(=O)CCCC[C@@H]1SC[C@@H]2NC(=O)N[C@@H]21)C(C)C)C(C)C)[C@@H](C)O)C(=O)N[C@@H](CCCCN)C(=O)N[C@H](C(=O)O)C(C)C [Dopamine transporter (Na+-dependent)] (Biotin-RELVDRGEVRQFTLRHWLKV-OH; C-terminus assumed)
Classification ([4]; PDZ ZO-1, PDZ Domain 2): 1 (A450 nm 0-1)

CC(C)C[C@H](NC(=O)[C@H](CC(C)C)NC(=O)[C@@H](NC(=O)[C@H](CC(=O)O)NC(=O)CCCC[C@@H]1SC[C@@H]2NC(=O)N[C@@H]21)[C@@H](C)O)C(=O)N[C@@H](CC(C)C)C(=O)N[C@H](C(=O)N[C@@H](CCC(=O)O)C(=O)N[C@@H](CC(N)=O)C(=O)N[C@@H](CCC(=O)O)C(=O)NCC(=O)N[C@@H](CC(=O)O)C(=O)N[C@@H](CCCCN)C(=O)N[C@H](C(=O)N[C@@H](CCC(=O)O)C(=O)N[C@@H](CCC(=O)O)C(=O)N[C@@H](CCC(N)=O)C(=O)N[C@H](C(=O)N[C@@H](CO)C(=O)N[C@@H](Cc1ccc(O)cc1)C(=O)N[C@H](C(=O)O)C(C)C)C(C)C)[C@@H](C)O)[C@@H](C)O [5H2B_HUMAN] (Biotin-DTLLLTENEGDKTEEQVSYV-OH; C-terminus assumed)
Classification [2]: 1 (A450 nm 0-1)

CC[C@H](C)[C@H](NC(=O)[C@H](Cc1ccc(O)cc1)NC(=O)[C@@H](NC(=O)[C@@H]1CCCN1C(=O)[C@H](CCC(N)=O)NC(=O)[C@H](CCC(=O)O)NC(=O)[C@H](CCC(N)=O)NC(=O)[C@H](C)NC(=O)[C@@H](NC(=O)[C@H](CC(C)C)NC(=O)[C@H](CC(C)C)NC(=O)[C@H](CCCNC(=N)N)NC(=O)[C@H](Cc1ccc(O)cc1)NC(=O)[C@H](CCSC)NC(=O)[C@H](C)NC(=O)[C@H](C)NC(=O)[C@@H]1CCCN1C(=O)[C@H](CCSC)NC(=O)[C@@H](NC(=O)[C@H](CCCCN)NC(=O)CCCC[C@@H]1SC[C@@H]2NC(=O)N[C@@H]21)[C@@H](C)O)[C@@H](C)O)C(C)C)C(=O)O [MINT-1] (Biotin-KTMPAAMYRLLTAQEQPVYI-OH; C-terminus assumed)
Classification ([4]; PDZ ZO-1, PDZ Domain 1): 1 (A450 nm 0-1)
